Drawing on paper PMC12646662, this text covers log10 ratio for one substance.

Assay [1] has as its target E-cadherin, endogenous in SK-Mel-28 cells. Kind of assay: Flag IP with mass spectrometry (LFQ). The note with it: read off a plot.
The target in another assay is GSDMA. Nature of the assay: Flag IP with mass spectrometry (LFQ). The note with it: SK-Mel-28 cells; read off a plot.

In the case of “Flag-CTNND1 WT, stably expressed in SK-Mel-28 cells (from UniProt O60716) C618S”, the log10 ratio was -2.5 in assay [1] and 2.2 in the assay with GSDMA.
